The values that follow come from paper PMC8096239, “Nse5/6 is a negative regulator of the ATPase activity of the Smc5/6 complex”.

The target of this data set is Smc5/6 holo-complex (S5-S6-N2/N1-N3-N4);Nse5/6 (Saccharomyces cerevisiae;Saccharomyces …, UniProt Q08204;Q12749;P38632;Q07913;Q05541;P43124;Q03718;P40026 …, |). Nature of the data set: EMSA; purified super-complex containing Nse5/6; no significant perturbation vs holo-complex; EMSA: 200 nM hairpin, 20 mM HEPES-NaOH pH 7.5, 150 mM NaCl, 0.5 mM TCEP, 30 min at 4 C; 0.8% TBE-agarose gel, 50 V, 3 h, 4 C. The note with it: protein: recombinant;recombinant, tags: Smc5-FLAG, Smc6-AVI-HIS, HA-Nse2, HIS-TEV-Nse1, Nse3 untagged, Nse4-HALO-Myc;Nse5-C.tag (GAAEPEA), HIS-3C-Nse6, copies: 1;1;1;1;1;1;1;1, label: fluorescein on position 5 of thymine, 6-carbon spacer, 48 bp stem, 4 nt loop AATA, blunt end. (In general: In EMSA bound probe runs differently from free probe, usually more slowly.)

B1: oligonucleotide C, self-annealed dsDNA hairpin (structured_DNA)
DNA: ATCAGTACTTGTCAACACGAGCAGCCCGTATATTCTCCTACAGCACTAAATATAGTGCTGTAGGAGAATATACGGGCTGCTCGTGTTGACAAGTACTGAT
modifications: internal fluorescein-dT (iFT), between S3 and S4 (position 51, in loop)
For B1, the binding result was “binds”.
